Measured values as given in paper doi:10.1101/2024.08.29.610253 (2024).
Where two headings read alike, the source gives them in different places.

T1: liprin-α2_CC2 (human, UniProt O75334 259-542)
T1 chain: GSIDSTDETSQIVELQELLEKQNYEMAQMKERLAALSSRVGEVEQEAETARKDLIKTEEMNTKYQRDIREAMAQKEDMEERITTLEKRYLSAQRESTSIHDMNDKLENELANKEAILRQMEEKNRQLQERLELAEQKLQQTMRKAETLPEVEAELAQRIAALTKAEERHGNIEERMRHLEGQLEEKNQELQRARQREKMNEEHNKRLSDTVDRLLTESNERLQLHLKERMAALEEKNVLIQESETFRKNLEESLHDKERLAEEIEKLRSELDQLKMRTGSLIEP

T2: liprin-α2_CC2N E380R (human, UniProt O75334 300-404, E380R)
T2 sequence: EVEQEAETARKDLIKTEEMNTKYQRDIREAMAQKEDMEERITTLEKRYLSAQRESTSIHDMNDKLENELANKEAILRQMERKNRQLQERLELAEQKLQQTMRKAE

T3: liprin-α2_CC2N A350S (human, UniProt O75334 300-404, A350S)
T3 sequence: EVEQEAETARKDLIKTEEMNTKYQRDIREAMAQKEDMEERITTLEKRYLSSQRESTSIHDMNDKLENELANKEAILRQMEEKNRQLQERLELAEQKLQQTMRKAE

B1: liprin-α2_CC2N (domain or fragment)
chain: EVEQEAETARKDLIKTEEMNTKYQRDIREAMAQKEDMEERITTLEKRYLSAQRESTSIHDMNDKLENELANKEAILRQMEEKNRQLQERLELAEQKLQQTMRKAE

Legend:
Assay in all cases: ITC
RIM1_C2B R1236E [1] = biological target: RIM1_C2B R1236E
RIM1_C2B L1245Q [2] = biological target: RIM1_C2B L1245Q
RIM1_C2B K1240E [3] = biological target: RIM1_C2B K1240E
RIM1_C2B L1245Q [4] = biological target: RIM1_C2B L1245Q; remark: listed apart in the source
RIM1_C2B R1236E [5] = biological target: RIM1_C2B R1236E; remark: listed apart in the source
RIM1_C2B K1240E [6] = biological target: RIM1_C2B K1240E; remark: listed apart in the source
liprin-α2_CC2N = biological target: B1
liprin-α2_CC2 = biological target: T1, liprin-α2_CC2
liprin-α2_CC2N R383A [7] = biological target: liprin-α2_CC2N R383A
liprin-α2_CC2N E379R [8] = biological target: liprin-α2_CC2N E379R
liprin-α2_CC2N E380R [9] = biological target: T2, liprin-α2_CC2N E380R
liprin-α2_CC2N R383A [10] = biological target: liprin-α2_CC2N R383A; remark: listed apart in the source
liprin-α2_CC2N E379R [11] = biological target: liprin-α2_CC2N E379R; remark: listed apart in the source
liprin-α2_CC2N A350S = biological target: T3, liprin-α2_CC2N A350S
liprin-α2_CC2N E380R [12] = biological target: T2, liprin-α2_CC2N E380R; remark: listed apart in the source

Kd (RIM1_C2B R1236E [1]) [µM] | Kd (RIM1_C2B L1245Q [2]) [µM] | Kd (RIM1_C2B K1240E [3]) [µM] | Kd (RIM1_C2B L1245Q [4]) [µM] | Kd (RIM1_C2B R1236E [5]) [µM] | Kd (RIM1_C2B K1240E [6]) [µM] | Kd (liprin-α2_CC2N) [µM] | Kd (liprin-α2_CC2) [µM] | Kd (liprin-α2_CC2N R383A [7]) [µM] | Kd (liprin-α2_CC2N E379R [8]) [µM] | Kd (liprin-α2_CC2N E380R [9]) [µM] | Kd (liprin-α2_CC2N R383A [10]) [µM] | Kd (liprin-α2_CC2N E379R [11]) [µM] | Kd (liprin-α2_CC2N A350S) [µM] | Kd (liprin-α2_CC2N E380R [12]) [µM] | Binder
27 | > 100 | 25 | > 100 | 27 | 25 |  |  |  |  |  |  |  |  |  | B1
 |  |  |  |  |  | 4 | 5 | 24 | 23 | 8.2 | 24 | 23 | 5.7 | 8.2 | RIM1_C2B (domain or fragment) GPAQLVGRQTLATPAMGDIQIGMEDKKGQLEVEVIRARSLTQKPGSKSTPAPYVKVYLLENGACIAKKKTRIARKTLDPLYQQSLVFDESPQGKVLQVIVWGDYGRMDHKCFMGVAQILLEELDLSSMVIGWYKLFPPSSLVDPTLAPLTRRASQSSLESSSGPPCIRS
